Experimental data published in publication PMC4520572.

Target: soluble neuronal SNARE complex (unlabeled) (UniProt P32851)
Sequence (P32851 1-265 S249C/K253C, chain 1 of 3): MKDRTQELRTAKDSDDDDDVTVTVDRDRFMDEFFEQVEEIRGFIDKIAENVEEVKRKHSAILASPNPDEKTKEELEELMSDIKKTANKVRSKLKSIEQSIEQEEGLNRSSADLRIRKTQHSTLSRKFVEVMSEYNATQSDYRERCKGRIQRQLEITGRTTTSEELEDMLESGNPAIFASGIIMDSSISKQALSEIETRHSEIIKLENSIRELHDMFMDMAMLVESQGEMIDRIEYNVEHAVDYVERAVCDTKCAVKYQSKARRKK
Sequence (P60881 other isoform, or with tags, fused parts or gaps, chain 2 of 3, further chain): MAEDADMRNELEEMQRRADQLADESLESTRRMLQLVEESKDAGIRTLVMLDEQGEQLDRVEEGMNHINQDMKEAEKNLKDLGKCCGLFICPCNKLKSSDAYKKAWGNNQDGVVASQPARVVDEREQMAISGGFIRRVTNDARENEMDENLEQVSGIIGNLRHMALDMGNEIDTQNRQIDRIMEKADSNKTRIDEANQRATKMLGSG
Sequence (P63045 1-96, chain 3 of 3, further chain): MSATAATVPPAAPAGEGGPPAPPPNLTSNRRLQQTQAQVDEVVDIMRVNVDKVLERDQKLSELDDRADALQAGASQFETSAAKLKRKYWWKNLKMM

Chain of α-soluble NSF attachment protein (α-SNAP) (P54921 whole entry): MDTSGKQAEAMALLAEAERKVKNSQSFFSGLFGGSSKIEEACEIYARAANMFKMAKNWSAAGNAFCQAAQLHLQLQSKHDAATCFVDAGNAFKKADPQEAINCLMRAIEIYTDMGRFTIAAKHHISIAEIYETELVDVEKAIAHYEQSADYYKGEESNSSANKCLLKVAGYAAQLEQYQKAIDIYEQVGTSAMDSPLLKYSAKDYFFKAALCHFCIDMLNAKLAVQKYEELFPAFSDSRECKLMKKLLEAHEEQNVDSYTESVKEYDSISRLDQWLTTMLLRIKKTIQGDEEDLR
Chain of N-Ethylmaleimide-sensitive factor (NSF) (P18708 whole entry): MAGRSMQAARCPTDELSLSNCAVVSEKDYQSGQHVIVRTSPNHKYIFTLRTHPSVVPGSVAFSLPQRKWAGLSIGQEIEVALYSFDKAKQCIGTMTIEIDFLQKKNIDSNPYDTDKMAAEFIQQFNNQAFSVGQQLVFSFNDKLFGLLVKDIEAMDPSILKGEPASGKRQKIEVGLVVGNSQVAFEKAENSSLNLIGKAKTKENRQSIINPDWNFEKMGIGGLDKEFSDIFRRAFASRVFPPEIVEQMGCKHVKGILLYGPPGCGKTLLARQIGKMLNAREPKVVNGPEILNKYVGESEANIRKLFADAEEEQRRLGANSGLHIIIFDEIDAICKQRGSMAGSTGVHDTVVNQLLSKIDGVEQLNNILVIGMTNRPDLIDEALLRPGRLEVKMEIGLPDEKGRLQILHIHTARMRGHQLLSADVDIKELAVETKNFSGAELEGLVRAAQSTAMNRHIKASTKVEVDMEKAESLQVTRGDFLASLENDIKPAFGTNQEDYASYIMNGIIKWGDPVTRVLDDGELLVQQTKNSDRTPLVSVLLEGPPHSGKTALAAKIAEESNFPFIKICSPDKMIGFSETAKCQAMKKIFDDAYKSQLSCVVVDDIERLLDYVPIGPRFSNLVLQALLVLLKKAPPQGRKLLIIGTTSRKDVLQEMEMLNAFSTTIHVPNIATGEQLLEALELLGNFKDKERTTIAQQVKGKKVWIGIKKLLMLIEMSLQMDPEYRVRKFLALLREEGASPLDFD

Substance | SNARE-dependent activation of the ATPase activity of NSF (coupled ATPase assay, 37 °C, with α-SNAP, KCl and NaCl omitted) [fold] | SNARE-dependent activation of the ATPase activity of NSF (coupled ATPase assay, 37 °C; activation was dependent on α-SNAP) [fold]
N-Ethylmaleimide-sensitive factor (NSF) (from UniProt P18708 1-744) (enzyme) | 26 | 
α-soluble NSF attachment protein (α-SNAP) (from UniProt P54921 1-295) (natural protein) |  | 26
